Residue numbers refer to the chain shown, from its start.
T1: wild type HAB1 (Arabidopsis thaliana, UniProt O49686+Q9CAJ0, A160V/F108A/F159V/K59R/M158I/S122G/T162D/V81I/Y58H)
T1 construct: expressed in transfected cells
T1 sequence (Q9CAJ0 4-511): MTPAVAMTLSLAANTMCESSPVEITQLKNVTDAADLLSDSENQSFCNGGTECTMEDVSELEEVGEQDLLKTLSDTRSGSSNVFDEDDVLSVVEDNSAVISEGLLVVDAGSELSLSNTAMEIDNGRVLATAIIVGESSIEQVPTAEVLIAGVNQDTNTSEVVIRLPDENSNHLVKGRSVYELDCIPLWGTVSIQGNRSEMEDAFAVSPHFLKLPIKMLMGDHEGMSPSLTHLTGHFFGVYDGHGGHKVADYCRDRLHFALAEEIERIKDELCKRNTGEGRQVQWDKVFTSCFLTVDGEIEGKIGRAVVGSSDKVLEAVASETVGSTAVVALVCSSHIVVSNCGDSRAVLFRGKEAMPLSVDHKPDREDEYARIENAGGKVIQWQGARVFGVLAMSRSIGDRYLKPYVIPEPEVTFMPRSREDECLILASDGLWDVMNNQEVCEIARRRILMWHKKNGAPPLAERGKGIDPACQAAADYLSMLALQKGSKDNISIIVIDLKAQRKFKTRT
T1 sequence (O49686 1-191 Y58H/K59R/V81I/F108A/S122G/M158I/F159V/A160V/T162D): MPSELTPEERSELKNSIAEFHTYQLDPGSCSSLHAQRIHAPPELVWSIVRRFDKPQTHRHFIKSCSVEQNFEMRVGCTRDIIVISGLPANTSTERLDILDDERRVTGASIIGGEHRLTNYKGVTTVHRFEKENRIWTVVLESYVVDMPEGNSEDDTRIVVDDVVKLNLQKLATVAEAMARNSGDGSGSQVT

T2: wild type PYR1 (Arabidopsis thaliana, UniProt O49686)
T2 construct: made in house; host or cells: E. coli BL21 [DE3]pLysS
T2 sequence (O49686 1-191): T1 sequence (O49686 1-191 Y58H/K59R/V81I/F108A/S122G/M158I/F159V/A160V/T162D) with H58Y, R59K, I81V, A108F, G122S, I158M, V159F, V160A, D162T

B1: PYR1*^-MANDI: PYR1 mutant with 9 mutations, most sensitive to mandipropamid (protein, listed as Arabidopsis thaliana)
chain: T1 sequence (O49686 1-191 Y58H/K59R/V81I/F108A/S122G/M158I/F159V/A160V/T162D)
B2: HAB1*: catalytically inactive orthogonal pentuple HAB1 mutant (protein, listed as Arabidopsis thaliana)
chain: T1 sequence (Q9CAJ0 4-511) with R196A, D201A, S319D, V390R, R502A

How the values were obtained:
wild type HAB1 = target: T1, wild type HAB1; test: Yeast two hybrid, mandipropamid-promoted interaction of PYR1 variants with wild type HAB1; format: cell-based
Description: To engineer orthogonal mandipropamid responsiveness, we introduced the PYR1^! mutation into the PYR1^MANDI receptor to create a septuple mutant called PYR1^!-MANDI (PYR1^Y58H;K59R;V81I;F108A;S122G;F159L;T162D). This mutant interacts with HAB1^! and HAB^!-2 in response to low μM mandipropamid in yeast two-hybrid assays, but is ˜100-fold less sensitive than the PYR1^MANDI/HAB1 interaction, which responds to concentrations in the low nM range (FIG. 3).
To improve sensitivity, we mutagenized ligand contacting and interface residues in PYR1^!-MANDI using NNK primers, pooled the mutant libraries, and used the mutagenized receptors in selection experiments using to identify enhancer mutations. The NNK mutagenesis screen targeted the following residues: P55, H60, F61, I62, K63, V83, S85, G86, L87, P88, A89, S92, E94, I110, H115, R116, L117, Y120, E141, P148, G150, N151, D154, D155, T156, M158, A160, V163, V164, L166, N167, and K170. […] Since M158 and A160 flank the F159V mutation present in PYR1^MANDI, we inferred that the closely located orthogonalizing T162D mutation in PYR1^!-MANDI may have reduced mandipropamid sensitivity by altering the local structure of the C-terminal α3-helix, which participates in ligand-induced conformational changes needed for PP2C binding (Nishimura et al., 2009). […]

wild type PYR1 = target: T2, wild type PYR1; test: In vitro pull down assay with recombinant 6×-His receptor and GST-PP2C; format: binding; conditions: FIG. 8
Description: To characterize the orthogonal orthogonal module biochemically, we produced recombinant forms of 6×-His-PYR1*^-MANDI, 6×-His-PYR1, GST-HAB1*, and GST-HAB1 in E. coli, as described above, and tested wild type and orthogonal receptors for their ability to inhibit GST-HAB1 activity in vitro, as well as their physical interactions with one another using pull-down assays. To characterize PYR1*^-MANDI and HAB1* in vitro, we cloned PYR1*^-MANDI into pET28 to generate a 6×-His tagged receptor and cloned HAB1* into pGEX-4T-1 to create a GST-fusion protein. Recombinant 6×-His-PYR1*^-MANDI and GST-HAB1* were prepared, as described above in example 1C, and used in experiments with previously prepared 6×-His-PYR1 and GST-HAB1. To conduct pull down assays, the specified recombinant receptor and PP2C (20 and 140 μg respectively), were combined in 500 μl PP2C assay buffer (100 mM Tris-HCl (pH 7.9), 100 mM NaCl, 1 mM MnCl2, 1% 13-ME and 0.3% BSA) containing either 10 μM ABA, 10 μM mandipropamid or 1% DMSO carrier solvent as a negative control. The final protein concentrations in the reactions are 1.6 μM receptor and 3.4 μM PP2C. The reactions were incubated for 90 minutes at room temperature (RT) and 20 μl of PrepEase (USB) His-tagged protein purification resin (20 mg) was added. The resin and reaction mixtures were incubated for 30 minutes at RT with gentle shaking at 5 minute intervals. The resin was washed five times and 100 μl of SDS-PAGE buffer was added and boiled for 5 minutes. After centrifugation 20 μl of supernatant was analyzed by SDS-PAGE.

Row | Molecule | fold less sensitivity to mandipropamid than the orthogonal interaction (wild type HAB1; FIG. 6) | interaction with wild type HAB1 (wild type HAB1; yeast two hybrid) | binding to wild type PYR1 (wild type PYR1; 10 μM ABA) | binding to wild type PYR1 (wild type PYR1; 10 μM mandipropamid)
1 | B1 | ~10 fold | weakly interacts |  | 
2 | B2 |  |  | does not bind | does not bind

Source: patent publication US10919943B2, “Mutant proteins enabling agrochemical control of plant gene expression” (The Regents of the University of California, priority 2016, dated 2021)
